From patent US20180186897A1 (INSTITUTE FOR RESEARCH IN BIOMEDICINE, published 2018)

Columns and labels:
RIFIN PF3D7_1400600 = molecular target: T1, RIFIN PF3D7_1400600 (Plasmodium falciparum); experiment: immunoprecipitation with MGD21, LC-MS
T1 construct: also called specific RIFIN
T1 chain: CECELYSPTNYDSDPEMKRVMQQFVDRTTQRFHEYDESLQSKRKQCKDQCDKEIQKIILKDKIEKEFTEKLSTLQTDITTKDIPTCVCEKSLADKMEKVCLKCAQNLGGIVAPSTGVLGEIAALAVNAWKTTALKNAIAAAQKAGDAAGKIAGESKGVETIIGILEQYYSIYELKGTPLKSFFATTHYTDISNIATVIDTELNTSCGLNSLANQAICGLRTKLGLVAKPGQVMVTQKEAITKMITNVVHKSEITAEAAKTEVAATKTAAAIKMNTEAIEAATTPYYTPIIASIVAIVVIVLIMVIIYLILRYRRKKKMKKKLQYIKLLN

[1] = molecular target: erythrocytes infected with P. falciparum field isolate 9106; experiment: flow cytometry, staining of IEs
[2] = molecular target: erythrocytes infected with P. falciparum field isolate 10936; experiment: flow cytometry, staining of IEs
[3] = molecular target: erythrocytes infected with P. falciparum field isolate 9605; experiment: flow cytometry, staining of IEs
[4] = molecular target: erythrocytes infected with P. falciparum field isolate 9775; experiment: flow cytometry, staining of IEs
[5] = molecular target: erythrocytes infected with P. falciparum field isolate 11019; experiment: flow cytometry, staining of IEs
[6] = molecular target: erythrocytes infected with P. falciparum field isolate 10975; experiment: flow cytometry, staining of IEs
[7] = molecular target: erythrocytes infected with P. falciparum field isolate 11014; experiment: flow cytometry, staining of IEs
[8] = molecular target: erythrocytes infected with P. falciparum field isolate 9215; experiment: flow cytometry, staining of IEs

| Binder | log2 fold change (enrichment in MGD21 immunoprecipitates of 3D7-MGD21+ against 3D7-MGD21- IEs) (RIFIN PF3D7_1400600) | % parasite recognition [1] | % parasite recognition [2] | % parasite recognition [3] | % parasite recognition [4] | % parasite recognition [5] | % parasite recognition [6] | % parasite recognition [7] | % parasite recognition [8] |
| --- | --- | --- | --- | --- | --- | --- | --- | --- | --- |
| MGD21 (antibody, IgG1, Human mAb of donor D with LAIR-1 exon+intron insert in CDRH3; also called MGD21 ANTIBODY; mAb MGD21) VH: EVQLVETGPGLMKTSGTLSLTCAVSGDYVNTNRRWSWVRQAPGKGLEWIGEVHQSGRTNYNPSLKSRVTISVDKSKNQFSLKVDSVTAADTAVYYCARASPLKSQRDTDLPRPSISAEPGTVIPLGSHVTFVCRGPVGVQTFRLERERNYLYSDTEDVSQTSPSESEARFRIDSVNAGNAGLFRCIYYKSRKWSEQSDYLELVVKGEDVTWALSQSQDDPRACPQGELPISTDIYYVDVWGNGTTVTVSS VL: AIRMTQSPSSLSASPGDKVSITCRASQHINDSLAWFQQRPGKAPKLLIYGASNLHSGVPSRFSGTGSGTDFTLTITGLQSEDFATYFCQQCNCFPPDFGQGTRLEIK | > 2 log2 fold change | – | – | – | – | – | – | – | – |
| MGC34 (antibody) VH: EVQLVESGGGLVQPGGSLRLSCEASGFTFSSYWMSWVRQAPGKGLEWVANINQDGSQKDYVDSVKGRFTISRDTAKNSLYLQMNSLRAEDTAVYYCARERLCTDDSHMHGEEDLPRPSISAEPGTVIPLGSHVTFVCRGPVGIHTFRLERESRSLYTETEDVTQVSPSESEARFRIESVTEGNAGLYRCVYYKPPKWSEQSDYLELLVKGEDVTRALFTHCGGDGKESDYHMDVWGKGTTVTVSS VL: QTVVTQEPSLTVSPGGTVTLTCASSTGAVTSGYYPSWFHQKPGQPVRALIYSTSKTHSWTPARFSGSLLGGKAALTLSNVQPEDEADYYCLLYYGGPQPWVFGGGTKLTVQ | – | 6.8% | 11.3% | 23.7% | 17.5% | 34.1% | 15.2% | 11.4% | 27.1% |
